From patent publication US20170037124A1 (Regeneron, published 2017)

B1: H4H15330P (antibody, human IgG4, V domains shown)
VH: QVQLVESGGGLVKPGGSLRLSCAASGFTFSDYYMSWIRQAPGKGLEWISHISGSGRTTHYADSMKGRFTISRDNAKNSLYLQMNSLRAEDTAVYYCVREGGFNWNYEGTFDIWGQGTMVTVSS
VL: DIVMTQTPLSSPVTLGQPASISCRSSQSLLHSDQNTYLSWLHQRPGQPPRLLIYKISNRFSGVPDRFSGSGAGTDFTLKISRVEAEDVGIYYCMQGTQFPLTFGGGTKVEIK
notes: H4H prefix: human IgG4 Fc
B2: H4H15367P2 (antibody, human IgG4, V domains shown)
VH: QVQLVESGGGVVQPGRSVRLSCGASGFTFKYYGMHWVRQAPGKGLEWVAVIWYDGRNKFYADSVKGRFTISRDNSKNTVNLEMNNLRAEDTAIYYCARDGGTADGDYFDYWGQGTLVTVSS
VL: not shown
notes: H4H prefix: human IgG4 Fc
B3: H4H15321P (antibody, human IgG4, V domains shown)
VH: EVQLVESGGGLVQPGGSLRLSCAASGFTFSSYAMSWVRQAPGKGLEWVSAITGSGGRTYYADSVKGRFTISRDNAKNTLYLQMNSLRAEDTAVYYCAKNFPFDYWGQGTLVTVSS
VL: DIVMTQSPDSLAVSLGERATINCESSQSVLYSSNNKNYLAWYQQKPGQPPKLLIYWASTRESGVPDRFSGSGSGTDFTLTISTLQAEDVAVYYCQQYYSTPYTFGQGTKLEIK
notes: H4H prefix: human IgG4 Fc
B4: H4H15341P (antibody, human IgG4, V domains shown)
VH: EVQLVESGGGLVQPGGSLRLSCAASGFTFNNHEMNWVRQAPGKGLEWVSYISSSGNTVTYADFLKGRFTISRDNAKNSLFLQMNSLRDEDTAVYYCARDHLSGTSPLSYWGQGTLVTVSS
VL: DIQMTQSPSSLSASVGDRVTITCQASQDINNYLNWFQQKPGKAPKLLIFDASNLETGVPSRFSGSGSGTDFTFTISSLQPEDIATYFCQQYENLPYTFGQGTKLEIK
notes: H4H prefix: human IgG4 Fc
B5: H4H15362P2 (antibody, human IgG4, V domains shown)
VH: QVQLVESGGGVVQPGRSLRLSCAASGFTFSSYGMHWVRQAPGKGLEWVAVIWYDGSNKYYADSVKGRFTISRDNSKNTLYLQMNSLRAEDTAVYYCARDWVRFLEWFPHFDYWGQGTLVTVSS
VL: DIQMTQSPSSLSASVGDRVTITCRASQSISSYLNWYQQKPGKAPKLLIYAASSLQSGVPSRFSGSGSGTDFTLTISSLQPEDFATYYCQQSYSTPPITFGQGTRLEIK
notes: H4H prefix: human IgG4 Fc

How the values were obtained:
[1] = biological target: T1, peptide from the N-terminal coiled-coil region of human ANGPTL3 (hANGPTL3 peptide, SEQ ID NO: 338) (human); assay: SPR, captured mAb, 500 nM peptide, 25C
T1 construct: also called hANGPTL3 shift peptide
T1 peptide: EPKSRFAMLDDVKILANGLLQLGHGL

[2] = biological target: T2, peptide from the N-terminal coiled-coil region of human ANGPTL4 (hANGPTL4 peptide, SEQ ID NO: 339) (human); assay: SPR, captured mAb, 500 nM peptide, 25C
T2 peptide: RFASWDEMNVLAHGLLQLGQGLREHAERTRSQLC

[3] = biological target: T3, human ANGPTL8 peptide (hANGPTL8 peptide, SEQ ID NO: 337) (human); assay: SPR, captured mAb, 500 nM peptide, 25C
T3 construct: also called N-terminal region ANGPTL8 peptide
T3 peptide: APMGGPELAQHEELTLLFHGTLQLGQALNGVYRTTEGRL

[4] = biological target: T4, human ANGPTL8 expressed with C-terminal mouse IgG2a Fc tag (hANGPTL8-mFc; SEQ ID NO: 340) (human); assay: BLI Octet, captured antigen, 100 nM mAb, 25C; background 0.03 nm
T4 construct: also called Angiopoietin-like protein 8
T4 chain: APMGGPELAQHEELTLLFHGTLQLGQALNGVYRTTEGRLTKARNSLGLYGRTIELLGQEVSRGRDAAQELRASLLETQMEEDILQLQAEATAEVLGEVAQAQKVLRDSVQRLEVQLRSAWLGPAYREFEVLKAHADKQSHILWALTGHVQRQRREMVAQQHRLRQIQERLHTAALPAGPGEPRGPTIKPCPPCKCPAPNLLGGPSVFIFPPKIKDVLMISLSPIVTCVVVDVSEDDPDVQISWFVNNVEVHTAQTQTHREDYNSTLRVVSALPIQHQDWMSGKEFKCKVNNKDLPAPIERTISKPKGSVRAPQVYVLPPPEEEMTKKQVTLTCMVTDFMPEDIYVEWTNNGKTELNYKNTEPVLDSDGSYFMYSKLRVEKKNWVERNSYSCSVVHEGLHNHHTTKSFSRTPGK
Method: Binding of ANGPTL8 antibodies to human and monkey ANGPTL8 proteins was investigated using Bio-layer Interferometry with an Octet HTX biosensor platform (ForteBio, A Division of Pall Life Sciences). All experiments were performed at 25° C. in 10 mM HEPES pH 7.4, 150 mM NaCl, 0.05% v/v Surfactant Tween-20, and 1 mg/ml BSA with the reaction multiwell plate agitated at 1000 rpm. Approximately 1.6 nm of human ANGPTL8 produced with a C-terminal mouse IgG2a Fc tag (hANGPTL8-mFc; SEQ ID NO: 340) or cynomolgus monkey ANGPTL8 produced with a C-terminal mouse IgG2a Fc tag (MfANGPTL8-mFc; SEQ ID NO: 341) was captured onto anti-mFc (AMC) Octet biosensors by submerging the sensors into wells containing 10 μg/mL of each protein for 4 minutes. Under the same conditions a negative control protein with the same mFc tag (hLDLR-mFc) was also coupled to the AMC sensor. All four sensors, […] and one blank, were then submerged into wells containing 100 nM of different ANGPTL8 monoclonal antibodies or an isotype control for 4 minutes.

[5] = biological target: T5, anti-mFc (AMC) Octet biosensor, blank; assay: BLI Octet, blank AMC sensor, 100 nM mAb, 25C
T5 construct: Sensor without captured protein, used as blank; also called Blank AMC Sensor
Method in brief: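 Antigen-mFc (human or cynomolgus ANGPTL8; hLDLR-mFc as negative control; one blank sensor) captured to ~1.6 nm from 10 μg/mL over 4 min. Sensors dipped 4 min in 100 nM mAb or isotype control at 25° C. Buffer: 10 mM HEPES pH 7.4, 150 mM NaCl, 0.05% Tween-20, 1 mg/ml BSA, shaken at 1000 rpm.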

[6] = biological target: T6, negative control protein with the same mFc tag (hLDLR-mFc) (human; mouse, UniProt P01130 22-788, limits assumed); assay: BLI Octet, captured antigen, 100 nM mAb, 25C
T6 construct: also called Irrelevant control; not shown: mouse IgG2a Fc tag (same mFc tag as hANGPTL8-mFc)

[7] = biological target: T7, monkey ANGPTL8 expressed with C-terminal mouse IgG2a Fc tag (MfANGPTL8-mFc; SEQ ID NO: 341) (cynomolgus monkey); assay: BLI Octet, captured antigen, 100 nM mAb, 25C
T7 construct: also called cynomolgus monkey ANGPTL8
T7 chain: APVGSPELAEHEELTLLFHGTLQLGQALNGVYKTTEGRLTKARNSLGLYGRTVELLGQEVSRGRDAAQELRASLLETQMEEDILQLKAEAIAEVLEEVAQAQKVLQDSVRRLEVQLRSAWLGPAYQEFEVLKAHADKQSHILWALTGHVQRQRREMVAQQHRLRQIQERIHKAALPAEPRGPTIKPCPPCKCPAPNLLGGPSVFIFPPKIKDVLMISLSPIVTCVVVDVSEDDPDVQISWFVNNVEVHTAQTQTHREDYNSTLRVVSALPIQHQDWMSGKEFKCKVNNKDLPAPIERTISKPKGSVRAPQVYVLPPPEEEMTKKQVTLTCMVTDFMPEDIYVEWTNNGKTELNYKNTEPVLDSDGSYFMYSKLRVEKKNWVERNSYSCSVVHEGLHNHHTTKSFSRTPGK

[8] = biological target: T4, human ANGPTL8 expressed with C-terminal …; assay: BLI Octet, captured antigen, 100 nM mAb, 25C
[9] = biological target: T8, linear peptide 1APMGGPELAQHEELT15 (SEQ ID NO: 348) (human); assay: Pepscan peptide array ELISA, 1 µg/ml antibody
T8 construct: Synthesized on a solid support (Pepscan array)
T8 peptide: APMGGPELAQHEELT

[10] = biological target: T7, monkey ANGPTL8 expressed with …; assay: SPR MASS-1, antigen-mFc captured, mAb injected, 25C; no dissociation seen, kd fixed at the detection limit
Method: (§1) All binding studies were performed in 10 mM HEPES pH 7.4, 150 mM NaCl, 3 mM EDTA, and 0.05% v/v Surfactant Tween-20 (HBS-ET running buffer) at 25° C. The HCA sensor surface was first derivatized by amine coupling goat anti-mouse IgG2a polyclonal antibody (Southern Biotech, #1080-01) onto which was then captured approximately 30 RU ([…]) of human ANGPTL8 expressed with C-terminal mouse IgG2a Fc tag (hANGPTL8-mFc; SEQ ID NO: 340) or monkey ANGPTL8 expressed with C-terminal mouse IgG2a Fc tag (MfANGPTL8-mFc; SEQ ID NO: 341).
(§2) Kinetic association (kₐ) and dissociation (kd) rate constants were determined by fitting the real-time binding sensorgrams to a 1:1 binding model with mass transport limitation using Scrubber 2.0c curve-fitting software. Binding dissociation equilibrium constants (KD) and dissociative half-lives (t½) were calculated from the kinetic rate constants as: […]
(§3) To obtain an estimate of the binding affinity the dissociation rate constant, kd, was fixed at the upper detection limit under the experimental conditions, 1.0E-05 1/s.

[11] = biological target: T4, human ANGPTL8 expressed with C-terminal …; assay: as above
Method: as §1, §2, §3

[12] = biological target: T7, monkey ANGPTL8 expressed with …; assay: SPR MASS-1, antigen-mFc captured, mAb injected, 25C
Method: as §1, §2

[13] = biological target: T4, human ANGPTL8 expressed with C-terminal …; assay: as above
Method: as §1, §2

T6 sequence (P01130 22-788 limits assumed): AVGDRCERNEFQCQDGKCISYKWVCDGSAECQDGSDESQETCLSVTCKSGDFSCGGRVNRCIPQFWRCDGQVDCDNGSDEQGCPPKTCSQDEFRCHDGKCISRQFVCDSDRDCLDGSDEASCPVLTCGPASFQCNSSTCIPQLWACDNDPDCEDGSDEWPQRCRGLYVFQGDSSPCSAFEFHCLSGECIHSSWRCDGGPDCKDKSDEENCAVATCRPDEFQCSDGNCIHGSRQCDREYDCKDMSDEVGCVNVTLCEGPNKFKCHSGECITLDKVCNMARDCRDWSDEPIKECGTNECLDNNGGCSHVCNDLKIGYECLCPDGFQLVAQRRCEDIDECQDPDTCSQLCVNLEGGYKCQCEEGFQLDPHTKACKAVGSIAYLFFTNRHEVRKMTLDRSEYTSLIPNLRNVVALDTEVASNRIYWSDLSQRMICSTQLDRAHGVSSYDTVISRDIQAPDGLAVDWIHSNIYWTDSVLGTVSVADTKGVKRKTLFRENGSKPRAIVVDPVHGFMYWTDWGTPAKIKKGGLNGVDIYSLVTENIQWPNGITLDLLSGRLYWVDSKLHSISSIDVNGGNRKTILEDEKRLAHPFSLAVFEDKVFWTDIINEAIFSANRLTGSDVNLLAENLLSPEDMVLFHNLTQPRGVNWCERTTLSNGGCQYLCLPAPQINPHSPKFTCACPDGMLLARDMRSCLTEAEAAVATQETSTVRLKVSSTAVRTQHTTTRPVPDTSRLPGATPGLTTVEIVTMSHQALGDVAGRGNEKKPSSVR

Binder	500 nM hANGPTL3 peptide Bound (RU) [1] [RU]	500 nM hAngPTL4 peptide Bound (RU) [2] [RU]	binding result [2]	500 nM hANGPTL8 peptide Bound (RU) [3] [RU]	binding result [3]	binding signal, fold above background [4] [fold]	mAb Binding Response (nm) [5] [nm]	mAb Binding Response (nm) [6] [nm]	mAb Binding Response (nm) [7] [nm]	mAb Binding Response (nm) [8] [nm]	binding result [1]	koff [3] [s⁻¹]	t½ [3] [h]	also measured
B1	-1	0	no binding (tested: <9 RU at 500 nM peptide)	0	no binding (tested: <9 RU at 500 nM peptide)	≥ 10	0.01	0.02	0.39	0.34	–	–	–	–
B2	0	0	no binding (tested: <9 RU at 500 nM peptide)	43	–	≥ 10	0	–	0.33	0.32	no binding (tested: <9 RU at 500 nM peptide)	9.82e-05	1.97	binding result [9]: binds
B3	0	0	no binding (tested: <9 RU at 500 nM peptide)	61	–	≥ 10	0	0.01	0.51	0.36	no binding (tested: <9 RU at 500 nM peptide)	8.29e-05	2.32	–
B4	0	0	no binding (tested: <9 RU at 500 nM peptide)	0	no binding (tested: <9 RU at 500 nM peptide)	–	0.03	–	0.1	0.12	no binding (tested: <9 RU at 500 nM peptide)	–	–	koff [10]: ≤ 1e-05 s⁻¹; koff [11]: ≤ 1e-05 s⁻¹; Kd [12]: ≤ 0.086 nM; kon [12]: 116000 M⁻¹ s⁻¹; t½ [12]: ≥ 19.2 h; Kd [13]: ≤ 0.117 nM; kon [13]: 85000 M⁻¹ s⁻¹; t½ [13]: ≥ 19.2 h
B5	0	0	no binding (tested: <9 RU at 500 nM peptide)	0	no binding (tested: <9 RU at 500 nM peptide)	≥ 10	0.01	–	0.36	0.39	no binding (tested: <9 RU at 500 nM peptide)	–	–	–
